# Data from the supplement of paper PMC10567573.
# B1: EPB41L3 (parent)
# chain: GSKFRYSGRTQAQTRRASALIDRP
# Variants of: B1
# Experiment: protein stability index of a GFP-peptide fusion (GPS, HEK-293T) (PSI 1-6); higher = more stable
# Conditions: c terminus: a fixed tail appended
# 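Further: lentivirally expressed fusions sorted by FACS into six bins by GFP to DsRed ratio, PSI derived from sequencing read proportions per bin multiplied by bin number.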
row,Variant,protein stability index
1,GSKFRYSGLTQAQTRRASALIDRP,2.92
2,GSKFRYSGFTQAQTRRASALIDRP,2.81
3,GSKFRYSGQTQAQTRRASALIDRP,3.32
4,GSKFRYSGDTQAQTRRASALIDRP,3.52
5,GSKFRYSQRTQAQTRRASALIDRP,3.39
6,GSKFRYSFRTQAQTRRASALIDRP,2.96
7,GSKFRYSIRTQAQTRRASALIDRP,2.93
8,GSKFRYSYRTQAQTRRASALIDRP,2.7
9,GSKFRYSRRTQAQTRRASALIDRP,4.01
10,GSKFRYSSRTQAQTRRASALIDRP,3.46
11,GSKFRYSPRTQAQTRRASALIDRP,3.43
12,GSKFRYSCRTQAQTRRASALIDRP,1.72
13,GSKFRYSVRTQAQTRRASALIDRP,3.07
14,GSKFRYSTRTQAQTRRASALIDRP,4.1
15,GSKFRYSNRTQAQTRRASALIDRP,3.13
16,GSKFRYSHRTQAQTRRASALIDRP,2.95
17,GSKFRYSDRTQAQTRRASALIDRP,3.02
18,GSKFRYSLRTQAQTRRASALIDRP,3.44
19,GSKFRYSKRTQAQTRRASALIDRP,3.44
20,GSKFRYSERTQAQTRRASALIDRP,3.52
21,GSKFRYSMRTQAQTRRASALIDRP,3.88
22,GSKFRYSWRTQAQTRRASALIDRP,2.1
23,GSKFRYSARTQAQTRRASALIDRP,3.41
24,GSKSRYSGRTQAQTRRASALIDRP,4.04

row,Variant,protein stability index
1,GSKTRYSGRTQAQTRRASALIDRP,4.17
2,GSKCRYSGRTQAQTRRASALIDRP,3.4
3,GSKQRYSGRTQAQTRRASALIDRP,4.47
4,GSKVRYSGRTQAQTRRASALIDRP,4.28
5,GSKKRYSGRTQAQTRRASALIDRP,4.62
6,GSKNRYSGRTQAQTRRASALIDRP,4.4
7,GSKLRYSGRTQAQTRRASALIDRP,3.95
8,GSKHRYSGRTQAQTRRASALIDRP,3.83
9,GSKMRYSGRTQAQTRRASALIDRP,3.48
10,GSKGRYSGRTQAQTRRASALIDRP,3.62
11,GSKWRYSGRTQAQTRRASALIDRP,2.86
12,GSKIRYSGRTQAQTRRASALIDRP,4
13,GSKPRYSGRTQAQTRRASALIDRP,3.47
14,GSKYRYSGRTQAQTRRASALIDRP,3.56
15,GSKRRYSGRTQAQTRRASALIDRP,4.42
16,GSKARYSGRTQAQTRRASALIDRP,4.23
17,GSKERYSGRTQAQTRRASALIDRP,3.82
18,GSKDRYSGRTQAQTRRASALIDRP,4.17
19,DSKFRYSGRTQAQTRRASALIDRP,3.06
20,RSKFRYSGRTQAQTRRASALIDRP,3.17
21,QSKFRYSGRTQAQTRRASALIDRP,2.74
22,LSKFRYSGRTQAQTRRASALIDRP,2.53
23,ASKFRYSGRTQAQTRRASALIDRP,3.02
24,YSKFRYSGRTQAQTRRASALIDRP,1.85

row,Variant,protein stability index
1,SSKFRYSGRTQAQTRRASALIDRP,2.33
2,MSKFRYSGRTQAQTRRASALIDRP,2.58
3,PSKFRYSGRTQAQTRRASALIDRP,2.99
4,ISKFRYSGRTQAQTRRASALIDRP,2.53
5,ESKFRYSGRTQAQTRRASALIDRP,3.62
6,HSKFRYSGRTQAQTRRASALIDRP,3.03
7,WSKFRYSGRTQAQTRRASALIDRP,2.33
8,KSKFRYSGRTQAQTRRASALIDRP,3.33
9,VSKFRYSGRTQAQTRRASALIDRP,2.43
10,FSKFRYSGRTQAQTRRASALIDRP,2.12
11,TSKFRYSGRTQAQTRRASALIDRP,3.08
12,NSKFRYSGRTQAQTRRASALIDRP,3.34
13,CSKFRYSGRTQAQTRRASALIDRP,2.88
14,GSKFRKSGRTQAQTRRASALIDRP,4.13
15,GSKFRMSGRTQAQTRRASALIDRP,4.64
16,GSKFRDSGRTQAQTRRASALIDRP,4
17,GSKFRRSGRTQAQTRRASALIDRP,4.23
18,GSKFRNSGRTQAQTRRASALIDRP,3.67
19,GSKFRSSGRTQAQTRRASALIDRP,3.85
20,GSKFRISGRTQAQTRRASALIDRP,3.62
21,GSKFRLSGRTQAQTRRASALIDRP,3.15
22,GSKFRPSGRTQAQTRRASALIDRP,3.68
23,GSKFRGSGRTQAQTRRASALIDRP,3.91
24,GSKFRQSGRTQAQTRRASALIDRP,3.71

row,Variant,protein stability index
1,GSKFRVSGRTQAQTRRASALIDRP,3.86
2,GSKFRCSGRTQAQTRRASALIDRP,3.51
3,GSKFRHSGRTQAQTRRASALIDRP,3.22
4,GSKFRWSGRTQAQTRRASALIDRP,3.49
5,GSKFRASGRTQAQTRRASALIDRP,3.85
6,GSKFRTSGRTQAQTRRASALIDRP,4.35
7,GSKFRFSGRTQAQTRRASALIDRP,2.96
8,GSKFRESGRTQAQTRRASALIDRP,4.13
9,GSKFRYSGREQAQTRRASALIDRP,3.01
10,GSKFRYSGRLQAQTRRASALIDRP,3.1
11,GSKFRYSGRMQAQTRRASALIDRP,2.39
12,GSKFRYSGRCQAQTRRASALIDRP,1.97
13,GSKFRYSGRKQAQTRRASALIDRP,3.89
14,GSKFRYSGRQQAQTRRASALIDRP,3.1
15,GSKFRYSGRAQAQTRRASALIDRP,2.97
16,GSKFRYSGRHQAQTRRASALIDRP,3.27
17,GSKFRYSGRPQAQTRRASALIDRP,3.74
18,GSKFRYSGRNQAQTRRASALIDRP,3.19
19,GSKFRYSGRGQAQTRRASALIDRP,3.66
20,GSKFRYSGRFQAQTRRASALIDRP,2.68
21,GSKFRYSGRIQAQTRRASALIDRP,2.37
22,GSKFRYSGRDQAQTRRASALIDRP,3.56
